Test results taken from patent publication US20260159566A1 (US Dept. of Health and Human Services, published 2026).
Read-outs that look alike come from different tables or passages of the source.

Assays:
[1] = target: T1, BCMA-Fc protein labeled with phycoerythrin (Homo sapiens (Human), UniProt Q02223 1-54, labeled with phycoerythrin); test: flow cytometry, BCMA-Fc-PE staining of CAR-transduced T cells
T1 construct: Staining reagent; also called BCMA-Fc-PE reagent; BCMA-Fc protein reagent; not shown: Fc part
T1 sequence: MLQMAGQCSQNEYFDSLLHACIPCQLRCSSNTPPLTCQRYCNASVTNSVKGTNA
Protocol: (§1) With reference to Table 2, cultured T cells were transduced with the indicated CARs and cultured overnight with the indicated target cells (top row). After the overnight incubation, a standard ELISA assay was performed on the culture supernatant. BCMA-K562 is BCMA⁺. All other targets are BCMA-negative. The percentage of T cells expressing the indicated CAR was determined by staining with a BCMA-Fc-PE reagent followed by flow cytometry. The % CAR⁺ equals the percentage of CD3⁺ cells transduced with each CAR that stained with the BCMA-Fc-PE reagent minus the percentage of untransduced CD3⁺ lymphocytes that stained with the BCMA-Fc-PE reagent. Except for the % CAR⁺ column, all numbers are pg/mL of interferon-gamma.

[2] = target: T2, B-cell Maturation Antigen (BCMA) (human, UniProt Q02223 1-184); test: cell-based or functional assay
T2 sequence: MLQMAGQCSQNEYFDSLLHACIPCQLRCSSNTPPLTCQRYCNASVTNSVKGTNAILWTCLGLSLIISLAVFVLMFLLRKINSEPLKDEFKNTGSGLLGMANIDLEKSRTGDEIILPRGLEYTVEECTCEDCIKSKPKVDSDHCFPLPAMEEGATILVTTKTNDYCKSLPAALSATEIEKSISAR

[3] = target: T2, B-cell Maturation Antigen (BCMA); test: cell-based or functional assay; remark: listed apart in the source
[4] = target: T1, BCMA-Fc protein labeled with …; test: flow cytometry, BCMA-Fc-PE staining of CAR-transduced T cells; remark: listed apart in the source
Protocol: as §1

B1: FHVH33-CD828Z (other)
chain: EVQLLESGGGLVQPGGSLRLSCAASGFTFSSYAMSWVRQAPGKGLEWVSSISGSGDYIYYADSVKGRFTISRDISKNTLYLQMNSLRAEDTAVYYCAKEGTGANSSLADYRGQGTLVTVSSFVPVFLPAKPTTTPAPRPPTPAPTIASQPLSLRPEACRPAAGGAVHTRGLDFACDIYIWAPLAGTCGVLLLSLVITLYCNHRNRSKRSRLLHSDYMNMTPRRPGPTRKHYQPYAPPRDFAAYRSRVKFSRSADAPAYQQGQNQLYNELNLGRREEYDVLDKRRGRDPEMGGKPRRKNPQEGLYNELQKDKMAEAYSEIGMKGERRRGKGHDGLYQGLSTATKDTYDALHMQALPPR
notes: Chimeric antigen receptor on transduced primary human T cells; also called FHVH33 CAR
- % CAR+ (percentage of CD3+ cells stained with BCMA-Fc-PE minus untransduced) [1]: 60.5%
- Interferon-gamma ELISA, T cells cultured overnight with BCMA-K562 cells [2]: 31300 pg/mL
- Interferon-gamma ELISA, T cells cultured overnight with RPMI-8226 cells [2]: 4060 pg/mL
- Tumor-necrosis factor-alpha ELISA, T cells cultured overnight with BCMA-K562 cells [3]: 2160 pg/mL
- Tumor-necrosis factor-alpha ELISA, T cells cultured overnight with RPMI-8226 cells [3]: 210 pg/mL
- % CAR+ (percentage of CD3+ cells stained with BCMA-Fc-PE minus untransduced) [4]: 60.5%
